Source: PMC3858372, “Cell Cycle-Dependent Turnover of 5-Hydroxymethyl Cytosine in Mouse Embryonic Stem Cells”

Legend:
His-GST-MBD1 (1-75) = test: pull-down; conditions: 2 pg fragment mixed with 10 ug genomic DNA, 4 C overnight, q-PCR read-out, 5mC, PCR product, methylation procedure not detailed, EMSA/competition: 25 mM HEPES-NaOH pH 7.4, 0.1 M NaCl, 0.1 mM TCEP, 250 ng poly(dI-dC)(dI-dC), 30 min, 7.5% native PAGE in 1x TBE
Uhrf1 (Np95) SRA domain = target: T1, Uhrf1 (Np95) SRA domain (mouse, UniProt Q8VDF2 405-613); test: EMSA; 0-3 uM SRA, 1 uM DNA, 250 ng poly(dI-dC); EMSA/competition: 25 mM HEPES-NaOH pH 7.4, 0.1 M NaCl, 0.1 mM TCEP, 250 ng poly(dI-dC)(dI-dC), 4 C, 30 min; 7.5% native PAGE in 1x TBE; conditions: protein: recombinant; blunt
T1 sequence: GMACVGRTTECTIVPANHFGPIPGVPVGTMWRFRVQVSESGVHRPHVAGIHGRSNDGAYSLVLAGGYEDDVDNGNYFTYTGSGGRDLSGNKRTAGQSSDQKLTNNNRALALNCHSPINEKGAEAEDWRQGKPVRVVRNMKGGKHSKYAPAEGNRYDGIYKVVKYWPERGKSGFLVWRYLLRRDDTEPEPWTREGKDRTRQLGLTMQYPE

methylated histone H3 DNA fragment
binding signal (His-GST-MBD1 (1-75)): 90 % recovered

B1: CG/5mCG (hemi-methylated 12-bp) (dsDNA)
DNA 1: CTACCGGATTGC
DNA 2: GCAATCCGGTAG
modifications: 5mC at position 7 of strand 2 (GCAATCXGGTAG, X = 5mC)
binding result (Uhrf1 (Np95) SRA domain): binds
